In the supplement of paper PMC10065799, “High-throughput profiling of sequence recognition by tyrosine kinases and SH2 domains using bacterial peptide display” (eLife, 2023):

Columns and labels:
Hck = Hck (UniProt P08631); assay: phosphorylation enrichment, bacterial display (enrichment ratio); higher = better substrate or ligand; peptides without Tyr show the background
Fer (mouse) = assay: as above
AncSZ = assay: as above
c-Src = assay: as above
FGFR1 = FGFR1 (UniProt P11362); assay: as above
Sequence of FGFR1 (P11362 whole entry, looked up): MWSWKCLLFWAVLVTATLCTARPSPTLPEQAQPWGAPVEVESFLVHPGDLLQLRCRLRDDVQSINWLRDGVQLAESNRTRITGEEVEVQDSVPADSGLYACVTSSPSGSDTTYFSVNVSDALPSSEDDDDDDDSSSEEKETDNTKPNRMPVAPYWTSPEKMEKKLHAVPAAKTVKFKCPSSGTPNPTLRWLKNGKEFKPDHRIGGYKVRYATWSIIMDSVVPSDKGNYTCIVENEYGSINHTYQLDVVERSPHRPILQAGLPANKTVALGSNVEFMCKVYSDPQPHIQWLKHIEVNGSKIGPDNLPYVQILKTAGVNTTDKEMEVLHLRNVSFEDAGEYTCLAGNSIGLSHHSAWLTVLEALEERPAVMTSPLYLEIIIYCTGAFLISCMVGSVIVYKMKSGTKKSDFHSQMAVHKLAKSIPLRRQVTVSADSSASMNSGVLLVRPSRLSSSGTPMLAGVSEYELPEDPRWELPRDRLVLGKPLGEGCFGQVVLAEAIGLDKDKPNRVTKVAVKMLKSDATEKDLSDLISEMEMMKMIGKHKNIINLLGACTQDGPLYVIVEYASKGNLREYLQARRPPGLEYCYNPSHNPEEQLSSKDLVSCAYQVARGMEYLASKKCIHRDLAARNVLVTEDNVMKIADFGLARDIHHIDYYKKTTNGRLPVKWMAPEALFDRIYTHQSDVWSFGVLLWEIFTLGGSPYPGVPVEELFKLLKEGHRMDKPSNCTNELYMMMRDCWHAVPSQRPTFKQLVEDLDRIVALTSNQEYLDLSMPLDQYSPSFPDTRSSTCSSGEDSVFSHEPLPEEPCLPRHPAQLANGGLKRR

Fyn = Fyn (UniProt P06241); assay: as above
Sequence of Fyn (P06241 whole entry, looked up): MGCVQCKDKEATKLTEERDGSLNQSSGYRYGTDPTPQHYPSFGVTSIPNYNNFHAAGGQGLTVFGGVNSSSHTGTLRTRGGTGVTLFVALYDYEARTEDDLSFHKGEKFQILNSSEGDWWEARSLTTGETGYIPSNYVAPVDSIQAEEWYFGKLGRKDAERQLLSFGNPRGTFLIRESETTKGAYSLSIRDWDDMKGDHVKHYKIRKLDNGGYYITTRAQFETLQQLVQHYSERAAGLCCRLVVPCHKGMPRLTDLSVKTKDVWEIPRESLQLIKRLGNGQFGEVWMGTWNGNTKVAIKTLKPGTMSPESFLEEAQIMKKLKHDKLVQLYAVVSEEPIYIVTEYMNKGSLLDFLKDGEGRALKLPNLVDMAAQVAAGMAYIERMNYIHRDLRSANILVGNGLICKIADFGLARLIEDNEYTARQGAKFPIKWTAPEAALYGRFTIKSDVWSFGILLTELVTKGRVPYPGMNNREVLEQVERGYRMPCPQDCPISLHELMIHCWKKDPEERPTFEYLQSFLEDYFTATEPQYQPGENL

c-Abl (mouse) = assay: as above
EPHB1 = EPHB1 (UniProt P54762); assay: as above
Sequence of EPHB1 (P54762 whole entry, looked up): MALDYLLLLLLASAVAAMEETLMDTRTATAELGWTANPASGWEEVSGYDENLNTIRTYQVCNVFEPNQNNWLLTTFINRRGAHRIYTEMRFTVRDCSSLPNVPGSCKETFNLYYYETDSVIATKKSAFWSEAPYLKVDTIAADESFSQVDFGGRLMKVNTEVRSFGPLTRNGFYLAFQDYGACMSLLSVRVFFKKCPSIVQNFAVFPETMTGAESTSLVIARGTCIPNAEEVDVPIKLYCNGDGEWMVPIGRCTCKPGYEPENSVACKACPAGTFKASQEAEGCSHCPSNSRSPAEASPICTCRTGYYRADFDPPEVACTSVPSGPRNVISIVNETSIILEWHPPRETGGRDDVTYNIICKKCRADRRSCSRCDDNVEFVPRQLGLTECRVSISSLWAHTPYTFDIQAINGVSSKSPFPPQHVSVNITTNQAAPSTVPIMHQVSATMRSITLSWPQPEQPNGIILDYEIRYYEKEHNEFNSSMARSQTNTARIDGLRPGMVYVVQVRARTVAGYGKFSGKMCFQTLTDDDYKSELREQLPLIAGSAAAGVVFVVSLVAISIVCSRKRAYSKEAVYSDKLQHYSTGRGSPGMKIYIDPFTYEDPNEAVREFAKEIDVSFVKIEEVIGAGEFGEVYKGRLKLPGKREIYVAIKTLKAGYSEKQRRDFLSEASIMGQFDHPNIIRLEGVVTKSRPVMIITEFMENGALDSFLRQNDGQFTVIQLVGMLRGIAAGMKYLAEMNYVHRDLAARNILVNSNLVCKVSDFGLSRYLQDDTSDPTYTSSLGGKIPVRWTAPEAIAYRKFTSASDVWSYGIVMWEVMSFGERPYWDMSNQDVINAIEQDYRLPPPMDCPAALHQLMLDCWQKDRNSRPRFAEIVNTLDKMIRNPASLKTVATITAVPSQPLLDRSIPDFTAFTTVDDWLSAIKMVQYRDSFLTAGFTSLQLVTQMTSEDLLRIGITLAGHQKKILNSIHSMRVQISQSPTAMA

FGFR3 = FGFR3 (UniProt P22607); assay: as above
Sequence of FGFR3 (P22607 whole entry, looked up): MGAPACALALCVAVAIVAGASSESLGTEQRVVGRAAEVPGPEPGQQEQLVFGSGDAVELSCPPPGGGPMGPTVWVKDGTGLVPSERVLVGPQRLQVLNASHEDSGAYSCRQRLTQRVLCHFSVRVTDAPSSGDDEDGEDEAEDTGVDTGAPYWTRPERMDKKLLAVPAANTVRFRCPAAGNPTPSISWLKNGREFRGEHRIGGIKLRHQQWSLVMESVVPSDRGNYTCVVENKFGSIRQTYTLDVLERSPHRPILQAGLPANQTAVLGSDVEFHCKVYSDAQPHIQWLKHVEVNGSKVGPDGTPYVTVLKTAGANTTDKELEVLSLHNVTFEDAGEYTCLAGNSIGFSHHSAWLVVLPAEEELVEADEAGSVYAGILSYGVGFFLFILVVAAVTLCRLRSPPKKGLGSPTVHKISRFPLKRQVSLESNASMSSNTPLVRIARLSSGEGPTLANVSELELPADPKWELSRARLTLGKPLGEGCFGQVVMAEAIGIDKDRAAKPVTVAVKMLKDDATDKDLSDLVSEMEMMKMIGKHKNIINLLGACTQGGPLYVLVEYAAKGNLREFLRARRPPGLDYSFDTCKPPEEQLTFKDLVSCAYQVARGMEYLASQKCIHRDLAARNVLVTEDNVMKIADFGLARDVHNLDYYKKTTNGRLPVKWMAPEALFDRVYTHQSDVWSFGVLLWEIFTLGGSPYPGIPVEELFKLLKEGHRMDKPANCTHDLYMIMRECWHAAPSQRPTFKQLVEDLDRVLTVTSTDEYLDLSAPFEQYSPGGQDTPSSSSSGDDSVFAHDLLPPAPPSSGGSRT

MERTK = MERTK (UniProt Q12866); assay: as above
Fes = Fes (UniProt P07332); assay: as above
Sequence of Fes (P07332 whole entry, looked up): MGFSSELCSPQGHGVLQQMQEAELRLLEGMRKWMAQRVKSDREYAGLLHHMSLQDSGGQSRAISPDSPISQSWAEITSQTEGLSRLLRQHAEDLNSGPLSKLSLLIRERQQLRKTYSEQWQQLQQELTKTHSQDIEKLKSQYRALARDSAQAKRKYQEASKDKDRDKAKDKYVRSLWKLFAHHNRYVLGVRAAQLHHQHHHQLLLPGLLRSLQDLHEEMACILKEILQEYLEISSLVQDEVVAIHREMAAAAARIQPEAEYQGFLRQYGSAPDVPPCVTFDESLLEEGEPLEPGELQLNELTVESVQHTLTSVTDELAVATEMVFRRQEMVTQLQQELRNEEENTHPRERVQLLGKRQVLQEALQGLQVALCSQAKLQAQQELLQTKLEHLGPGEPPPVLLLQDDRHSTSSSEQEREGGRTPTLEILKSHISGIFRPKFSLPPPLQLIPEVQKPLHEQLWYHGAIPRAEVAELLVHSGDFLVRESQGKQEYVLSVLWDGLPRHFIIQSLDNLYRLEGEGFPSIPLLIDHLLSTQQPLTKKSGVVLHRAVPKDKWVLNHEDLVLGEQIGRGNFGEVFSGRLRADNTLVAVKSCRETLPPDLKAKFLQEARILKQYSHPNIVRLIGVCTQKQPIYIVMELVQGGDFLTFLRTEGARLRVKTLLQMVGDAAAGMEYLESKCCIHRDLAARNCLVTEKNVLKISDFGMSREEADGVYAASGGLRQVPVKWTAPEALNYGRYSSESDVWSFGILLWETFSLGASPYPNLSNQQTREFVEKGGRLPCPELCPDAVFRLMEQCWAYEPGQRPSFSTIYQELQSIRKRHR

Jak2 = Jak2 (UniProt O60674); assay: as above
EPHB2 = EPHB2 (UniProt P29323); assay: as above
Sequence of EPHB2 (P29323 whole entry, looked up): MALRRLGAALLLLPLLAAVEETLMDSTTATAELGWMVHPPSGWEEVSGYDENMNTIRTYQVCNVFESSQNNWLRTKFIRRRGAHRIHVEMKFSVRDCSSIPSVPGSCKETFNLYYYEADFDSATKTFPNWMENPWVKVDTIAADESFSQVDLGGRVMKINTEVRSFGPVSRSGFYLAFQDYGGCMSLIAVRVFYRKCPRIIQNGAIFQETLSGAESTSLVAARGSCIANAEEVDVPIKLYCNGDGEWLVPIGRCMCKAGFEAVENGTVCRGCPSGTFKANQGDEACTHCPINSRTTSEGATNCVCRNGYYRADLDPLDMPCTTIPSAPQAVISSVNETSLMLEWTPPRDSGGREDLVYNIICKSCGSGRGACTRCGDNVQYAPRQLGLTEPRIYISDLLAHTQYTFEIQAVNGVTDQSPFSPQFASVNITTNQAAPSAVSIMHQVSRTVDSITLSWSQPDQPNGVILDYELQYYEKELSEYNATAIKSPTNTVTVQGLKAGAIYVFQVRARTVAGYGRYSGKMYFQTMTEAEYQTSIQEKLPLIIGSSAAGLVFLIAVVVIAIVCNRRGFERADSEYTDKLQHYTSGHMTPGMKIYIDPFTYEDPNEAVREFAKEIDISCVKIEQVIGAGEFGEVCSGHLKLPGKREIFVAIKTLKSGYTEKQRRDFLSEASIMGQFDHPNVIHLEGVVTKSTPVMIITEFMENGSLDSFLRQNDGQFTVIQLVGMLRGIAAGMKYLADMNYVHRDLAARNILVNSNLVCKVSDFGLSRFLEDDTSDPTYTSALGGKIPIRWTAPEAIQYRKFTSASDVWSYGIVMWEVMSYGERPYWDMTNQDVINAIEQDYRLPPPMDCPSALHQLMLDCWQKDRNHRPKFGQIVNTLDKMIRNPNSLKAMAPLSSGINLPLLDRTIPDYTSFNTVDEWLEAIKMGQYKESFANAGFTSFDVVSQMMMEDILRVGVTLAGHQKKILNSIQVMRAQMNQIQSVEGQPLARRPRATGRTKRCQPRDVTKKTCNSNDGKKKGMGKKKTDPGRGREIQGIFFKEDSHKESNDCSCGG

c-Src SH2 = assay: SH2 binding enrichment of the phosphorylated peptide, bacterial display (enrichment ratio); higher = better substrate or ligand; peptides without Tyr show the background
SHP2-C SH2 = assay: as above
Grb2 SH2 = Grb2 SH2 (UniProt P62993); assay: as above
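For SH2 binding enrichment of the phosphorylated peptide, bacterial display in this document: peptide library displayed on the E. coli surface as eCPX fusions, selected cells deep-sequenced, score is each peptide's frequency after selection divided by its frequency in the input.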
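For phosphorylation enrichment, bacterial display in this document: 11-residue human phosphosite peptides and single-mutation variants displayed on the E. coli surface, counted by deep sequencing, each peptide's frequency after selection divided by its frequency in the unselected input library; frequency after pTyr selection over input frequency; kinase dosed for 20-30% of maximal phosphorylation in three min.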

Sequence | SH2 binding enrichment (c-Src SH2) | SH2 binding enrichment (SHP2-C SH2) | SH2 binding enrichment (Grb2 SH2) | phosphorylation enrichment (Hck) | phosphorylation enrichment (Fer (mouse)) | phosphorylation enrichment (AncSZ) | phosphorylation enrichment (c-Src) | phosphorylation enrichment (FGFR1) | phosphorylation enrichment (Fyn) | phosphorylation enrichment (c-Abl (mouse)) | phosphorylation enrichment (EPHB1) | phosphorylation enrichment (FGFR3) | phosphorylation enrichment (MERTK) | phosphorylation enrichment (Fes) | phosphorylation enrichment (Jak2) | phosphorylation enrichment (EPHB2)
CRAVKYLQMVD [AVPR2_Y117_G122D] | 0.532 | 0.755 | 0.798 | 0.456 | 0.419 | 0.71 | 0.318 | 0.427 | 0.503 | 0.535 | 0.508 | 0.585 | 0.354 | 0.922 | 0.675 | 0.456
DAAEDYAEGVR [DHODH_Y194] | 0.701 | 0.63 | 0.937 | 0.586 | 0.629 | 1.21 | 0.45 | 0.561 | 0.542 | 0.695 | 0.549 | 0.746 | 0.45 | 1.31 | 0.951 | 0.671
DDEENYENVPR [FCRL3_Y722] | 0.699 | 0.9 | 1.04 | 0.589 | 0.57 | 1.3 | 0.428 | 0.567 | 0.555 | 0.786 | 0.619 | 0.773 | 0.45 | 1.19 | 1.11 | 0.572
DDKQPYEKKAE [HMGB1_Y144_A149E] | 0.736 | 0.756 | 1.09 | 0.579 | 0.464 | 1.12 | 0.43 | 0.529 | 0.53 | 0.828 | 0.516 | 0.631 | 0.515 | 1.04 | 0.921 | 0.645
DFTEAYNSKIK [CLK1_Y305_P307S_YF] | 0.45 | 0.613 | 0.945 | 0.526 | 0.465 | 0.899 | 0.56 | 0.592 | 0.512 | 0.795 | 0.721 | 0.65 | 0.464 | 1.02 | 0.908 | 0.622
DGKFSYLKVGH [GRM3_Y480_G475D_YF] | 0.421 | 0.671 | 0.838 | 0.337 | 0.338 | 0.678 | 0.411 | 0.467 | 0.33 | 0.575 | 0.444 | 0.478 | 0.505 | 1.16 | 0.599 | 0.388
DGLASYLDKVR [KRT12_Y139_R135G] | 0.437 | 0.737 | 0.872 | 0.375 | 0.365 | 0.664 | 0.414 | 0.363 | 0.422 | 0.685 | 0.41 | 0.51 | 0.415 | 0.757 | 0.631 | 0.414
DGQVNYEEFVQ [CALM1_Y139] | 0.399 | 0.493 | 0.784 | 0.626 | 0.659 | 1.33 | 0.576 | 0.608 | 0.505 | 0.957 | 1.62 | 0.841 | 0.487 | 1.42 | 1.2 | 1.28
DISEPYEVFRI [IRF8_Y107_K108E_YF] | 0.663 | 0.916 | 1.03 | 1.81 | 12.3 | 2.21 | 4.48 | 0.661 | 1.91 | 1.09 | 0.665 | 0.725 | 0.572 | 1.15 | 1.09 | 0.559
DISEPYEVYRI [IRF8_Y107_K108E] | 0.638 | 0.401 | 0.76 | 1.28 | 9.63 | 2.01 | 3.97 | 0.736 | 1.55 | 0.862 | 0.425 | 0.624 | 0.522 | 1.05 | 0.912 | 0.634
DLDATYRPMFS [JUP_Y701_M697L_YF] | 0.5 | 0.713 | 0.72 | 0.686 | 0.489 | 0.722 | 0.542 | 0.491 | 0.522 | 0.662 | 0.636 | 0.557 | 0.33 | 0.85 | 0.673 | 0.557
DPADRYLTEQF [CDKL5_Y286_C291Y_YF] | 0.571 | 0.618 | 0.889 | 0.558 | 0.513 | 1.11 | 0.594 | 0.591 | 0.527 | 0.733 | 0.514 | 0.645 | 0.6 | 1.35 | 1.11 | 0.747
DPASAYADEVK [ETNPPL_Y189_S185P] | 0.671 | 0.462 | 0.941 | 0.557 | 0.495 | 1.06 | 0.416 | 0.473 | 0.492 | 0.794 | 0.628 | 0.724 | 0.435 | 1.2 | 1.06 | 0.469
DRLASDLDKVR [KRT10_Y160_Y160D] | 0.505 | 0.681 | 0.842 | 0.425 | 0.416 | 0.603 | 0.363 | 0.439 | 0.448 | 0.443 | 0.372 | 0.469 | 0.362 | 0.661 | 0.537 | 0.471
DSGKLYALDGL [INO80_Y1104_V1108G] | 0.567 | 0.525 | 0.92 | 0.828 | 0.719 | 0.829 | 1.17 | 0.581 | 0.763 | 0.699 | 0.723 | 0.715 | 2.2 | 1.02 | 0.912 | 0.833

The next lines start with results.

SH2 binding enrichment (c-Src SH2) | SH2 binding enrichment (SHP2-C SH2) | SH2 binding enrichment (Grb2 SH2) | Sequence | phosphorylation enrichment (Hck) | phosphorylation enrichment (Fer (mouse)) | phosphorylation enrichment (AncSZ) | phosphorylation enrichment (c-Src) | phosphorylation enrichment (FGFR1) | phosphorylation enrichment (Fyn) | phosphorylation enrichment (c-Abl (mouse)) | phosphorylation enrichment (EPHB1) | phosphorylation enrichment (FGFR3) | phosphorylation enrichment (MERTK) | phosphorylation enrichment (Fes) | phosphorylation enrichment (Jak2) | phosphorylation enrichment (EPHB2)
1.23 | 1.73 | 1.71 | CTIIHYNFMCN [TP53_Y234_T231I_YF] | 0.56 | 0.686 | 1.12 | 0.445 | 0.524 | 0.482 | 0.825 | 0.718 | 0.993 | 0.434 | 1.54 | 1.5 | 0.553
0.922 | 0.837 | 1.21 | CTTIHDNYMCN [TP53_Y234_Y234D] | 0.546 | 0.54 | 0.817 | 0.44 | 0.541 | 0.435 | 0.551 | 0.521 | 0.539 | 0.507 | 1 | 0.799 | 0.556
1.86 | 0.857 | 0.995 | CTTIHYNYMHN [TP53_Y234_C238H] | 0.407 | 0.488 | 0.692 | 0.349 | 0.479 | 0.447 | 0.446 | 0.528 | 0.521 | 0.433 | 0.767 | 0.531 | 0.536
3.79 | 1.12 | 0.962 | CTTNHYNFMCN [TP53_Y234_I232N_YF] | 0.424 | 0.486 | 0.811 | 0.497 | 0.626 | 0.463 | 0.489 | 0.436 | 0.556 | 0.437 | 0.67 | 0.511 | 0.544
4.04 | 1.04 | 1.14 | CTTSHYNFMCN [TP53_Y234_I232S_YF] | 0.446 | 0.552 | 0.911 | 0.48 | 0.509 | 0.484 | 0.613 | 0.516 | 0.637 | 0.455 | 0.967 | 0.884 | 0.533
1.08 | 1.26 | 1.31 | CYCSWYRGWAP [TIMP3_Y195_G190C] | 1.01 | 3.41 | 1.03 | 3.7 | 1.19 | 0.721 | 0.882 | 0.628 | 1.02 | 0.733 | 1.08 | 1.04 | 0.632
0.509 | 0.558 | 0.85 | DAANNYARGHY [TUBA3E_Y103_S101N] | 0.436 | 0.355 | 0.691 | 0.442 | 0.469 | 0.421 | 0.559 | 0.412 | 0.45 | 0.528 | 0.575 | 0.546 | 0.37
0.617 | 0.725 | 0.732 | DALDNYVVRGV [PCCA_Y473_I475V] | 0.394 | 0.387 | 0.751 | 0.436 | 0.458 | 0.507 | 0.674 | 0.499 | 0.466 | 0.37 | 0.823 | 0.793 | 0.536
0.881 | 0.726 | 0.906 | DENWFYTQAAS [RPS19_Y54_R56Q] | 0.392 | 0.483 | 1.15 | 0.472 | 0.455 | 0.388 | 0.62 | 0.49 | 0.682 | 0.395 | 1.06 | 0.876 | 0.877
0.71 | 0.979 | 1.02 | DFFDLYGGEKL [PTPN11_Y66_F71L_YF] | 3.61 | 0.816 | 1.54 | 3.79 | 0.582 | 2.1 | 1.02 | 0.743 | 0.746 | 0.9 | 1.92 | 1.88 | 0.901
2.01 | 3.8 | 1.1 | DFLSSYSAVNQ [OAT_Y85] | 0.531 | 1.17 | 1.04 | 0.61 | 0.433 | 0.427 | 0.703 | 0.658 | 0.698 | 0.558 | 0.947 | 0.997 | 0.493
0.475 | 0.713 | 0.628 | DGTESYLTVSS [PLK1_Y462] | 0.443 | 0.487 | 0.89 | 0.465 | 0.454 | 0.453 | 0.687 | 0.447 | 0.59 | 0.387 | 0.954 | 0.845 | 0.467
0.679 | 1.16 | 0.849 | DLVRPYVHKIL [SF3B1_Y570] | 0.449 | 0.534 | 0.636 | 0.43 | 0.466 | 0.703 | 0.539 | 0.519 | 0.566 | 0.504 | 0.743 | 0.55 | 0.586
0.597 | 0.642 | 0.989 | DLVSEYQQYQD [TUBB3_Y422] | 0.656 | 0.709 | 1.57 | 0.677 | 0.523 | 0.706 | 1.04 | 0.721 | 0.858 | 0.488 | 1.37 | 1.42 | 0.704
0.655 | 0.71 | 0.917 | DPHQQYFIAMD [TBX15_Y159_YF] | 0.544 | 0.396 | 0.93 | 0.637 | 1.02 | 0.551 | 0.792 | 0.504 | 1.19 | 0.511 | 1.1 | 1.06 | 0.577
0.546 | 0.657 | 1.04 | DPLLTYQFPPK [LMNA_Y481_R482Q] | 0.986 | 0.498 | 1.25 | 1.54 | 1.69 | 1.24 | 0.549 | 0.597 | 1.17 | 0.796 | 0.773 | 0.566 | 1.27
0.521 | 0.797 | 1.04 | DRLASYLDKVP [KRT14_Y129_R134P] | 0.5 | 0.499 | 0.802 | 0.493 | 0.456 | 0.481 | 0.621 | 0.537 | 0.689 | 0.495 | 0.912 | 0.883 | 0.472
0.442 | 0.405 | 0.688 | DSDTDYGSGYP [RNASEH2A_Y206_L202S] | 0.699 | 0.646 | 1.36 | 0.689 | 0.647 | 0.677 | 1.01 | 0.708 | 0.899 | 0.575 | 1.55 | 1.43 | 0.573
